Measurements: patent publication US20060110789A1, “Methods to mediate polyketide synthase module effectiveness” (priority 2002, published 2006)

Assays:
Type in all cases: biochemical
(5)M2+TE [1] = molecular target: T1, (5)M2+TE (Saccharopolyspora erythraea, UniProt Q03131+Q03133); assay: Substrate transfer and elongation assay, acceptor DEBS module 2; conditions: 20 μM substrate, 2 hours
T1 construct: The protein was, in each case, a single module of the DEBS PKS fused to the thioesterase (TE) termination region of module 6; first 39 amino acids of module 5 (N-ERL); made in house; host or cells: E. coli (BL21(DE3) with sfp)
Procedure: (§1) Substrate transfer and elongation assays. Qualitative assays were performed with a diketide-ACP or diketide-PCP substrate either taken directly from the so phosphopantetheinlyation reaction or after further purification of the substrate. These assays were performed with 20 μM diketide-ACP/PCP substrate for 2 hours in the following reaction conditions: 1 μM acceptor module, 0.5 mM ^14C-methylmalonyl CoA, 4 mM NADPH in buffer C, 30° C. After quenching by addition of 250 μL EtOAc and vortexing, the products were extracted with 2×250 μL EtOAc, resolved on a silica gel TLC plate, and visualized on a Packard InstantImager.
(§2) The kinetics of substrate transfer at the module 2-module 3 interface followed by elongation and product release were examined as a function of the k60 μM and kcat/KM values of the overall reaction. […] In many cases, the k60μm values approximate the maximal overall turnover rates, as determined by back calculating the KM value for the reactions. True saturation kinetics were not practical because of the technical limitations (e.g., solubility) and limited supply associated with high molecular weight substrates such as diketide-ACP and diketide-PCP. kcat/KM values were determined by competitive assay of the substrate of interest against a substrate with a known kcat/KM value, as previously described (Wu, et al., (2001) J. Am. Chem. Soc. 123, 6465-6474). […]

(5)M6+TE = molecular target: T2, (5)M6+TE (Saccharopolyspora erythraea, UniProt Q03133, DEL53-1503); assay: Substrate transfer and elongation assay, acceptor DEBS module 6; conditions: 20 μM substrate, 2 hours
T2 construct: The protein was, in each case, a single module of the DEBS PKS fused to the thioesterase (TE) termination region of module 6; first 39 amino acids of module 5 (N-ERL); made in house; host or cells: E. coli (BL21(DE3) with sfp)
Procedure: as §1, §2

(5)M2+TE [2] = molecular target: T1, (5)M2+TE; assay: Labeling of holo-ACP4(4) with 14C-2a mediated by (5)M2+TE (back-transfer); conditions: 20 μM holo-ACP4(4), 1 mM 14C-2a, with and without 1 μM (5)M2+TE
Procedure: Labeling of Holo-ACP4(4) with ^14C-2a Mediated by (5)M2+TE. Holo-ACP4(4) (20 μM) was incubated with 1 mM [1-^14C]-labeled 2a (custom synthesized by Amersham Pharmacia, specific activity 55 mCi/mmol) and 1 μM (5)M2+TE in reaction buffer C for 10 min at 30° C. The protein was precipitated with 75% acetone/H2O for 5 min at −80° C. After washing the pellet with 6.25% (w/v) TCA to remove excess salts followed by 500 μL of 75% acetone/H2O to remove residual, unbound 14 C-2a, the precipitated protein was resuspended in 8 μL of buffer A and 4 μL of SDS sample buffer, and resolved on a 420% SDS-PAGE gradient gel (Bio-Rad). The proteins were visualized with Coomassie blue stain and dried, and the radioactivity was detected either on a Packard InstantImager or by exposing the gel to X-ray film.

B1: diketide-eryLDD(Ø): diketide on the DEBS loading didomain with no C-terminal linker (conjugate)
chain: MSGPRSRTTSRRTPVRIGAVVVASSTSELLDGLAAVADGRPHASVVRGVARPSAPVVFVFPGQGAQWAGMAGELLGESRVFAAAMDACARAFEPVTDWTLAQVLDSPEQSRRVEVVQPALFAVQTSLAALWRSFGVTPDAVVGHSIGELAAAHVCGAAGAADAARAAALWSREMIPLVGNGDMAAVALSADEIEPRIARWDDDVVLAGVNGPRSVLLTGSPEPVARRVQELSAEGVRAQVINVSMAAHSAQVDDIAEGMRSALAWFAPGGSEVPFYASLTGGAVDTRELVADYWRRSFRLPVRFDEAIRSALEVGPGTFVEASPHPVLAAALQQTLDAEGSSAAVVPTLQRGQGGMRRFLLAAAQAFTGGVAVDWTAAYDDVGPNPALCRSSRRPRRKTSRPSPASTGTRHRTCCERLLAVVNGETAALAGREADAEATFRELGLDSVLAAQLRAKVSAAIGREVNIALLYDHPTPRALAEALAAGT
modifications: non-natural residues
notes: diketide on the DEBS loading didomain with no C-terminal linker
(5)M2+TE [1]
  qualitative transfer of diketide to (5)M2+TE: able to channel the diketide substrate
(5)M6+TE
  qualitative transfer of diketide to (5)M6+TE: able to channel the diketide substrate

B2: holo-ACP4(4): phosphopantetheinylated DEBS ACP4 domain with its natural C-terminal linker (protein)
chain: HHHHHHNVVDRLAGRSESDQVAGLAELVRSHAAAVSGYGSADQLPERKAFKDLGFDSLAAVELRNRLGTATGVRLPSTLVFDHPTPLAVAEHLRDRLFAASPAVDIGDRLDELEKALEALSAEDGHDDVGQRLESLLRRWNSRRADAPSTSAISEDASDDELFSMLDQRFGGGEDL
(5)M2+TE [2]
  radiolabeling of the ACP by 14C-2a: radiolabeled only in the reaction containing (5-M2+TE

B3: diketide-ACP2(Ø): diketide on isolated ACP2 domain without linker region (conjugate)
chain: HHHHHHDRLAGLPRAERTAELVRLVRTSTATVLGHDDPKAVRATTPFKELGFDSLAAVRLRNLLNAATGLRLPSTLVFDHPNASAVAGFLDAELG
(5)M2+TE [1]
  qualitative transfer of diketide to (5)M2+TE: able to channel the diketide substrate
(5)M6+TE
  qualitative transfer of diketide to (5)M6+TE: able to channel the diketide substrate
